We go through one substance from patent publication US20250213666A1.

The target in the assay is Spike protein on SARS-CoV-2 pseudovirus expressing luciferase (COVID-19 Pseudovirus Neutralizing Antibody Assay, Abnova) (SARS-CoV-2) (UniProt P0DTC2). Nature of the assay: cell-based or functional assay.

“Intimin-Ty1 nanobody (pIntimin-Ty1), surface displayed on E. coli Nissle 1917 or on its OMVs (VHH)” returned a Pseudovirus-ACE2 receptor inhibition, OMVs at 22 µg/mL of 30 to 32%.
